This passage reports switch fluorescence ratio results from the supplement of paper PMC10126150.

The data set has as its system ATP. Put plainly: switch fluorescence ratio, 500 uM ATP over buffer (Cy3 cluster intensity, sum of 5 cycles each) (fold (ratio)); higher = stronger signal-on switching upon ATP binding; sequences stand for … in TCGTCGGCAGCGTCAGATGTGTATAAGAGACAGTTTTTTTTTTTTTTTTTTTTTTTTT…TC. The settings on record: aptamer strand: ATP DNA aptamer (quencher-CACCTGGGGGAGTATTGCGGAGGAAGG + anchor), 100 nM annealed; ATP concentration: 500 uM. In short, it runs like this:
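Per cluster, summed Cy3 intensity from the target cycles was divided by that from the buffer cycles to give the fluorescence ratio, then averaged per switch-domain sequence. Clusters outside 100-1000 RFU were excluded. The Cy3-labelled switching-strand clusters, on a modified Illumina MiSeq flow-cell, were annealed to 100 nM quencher-labelled ATP aptamer and imaged in selection buffer, then after 15 min with 500 uM ATP at 22 °C, for five cycles with NaOH stripping and re-annealing between them.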

± gives the standard deviation of the averaged measurements.
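Also: ATP exposure 15 min at 22 °C before imaging.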

As for GTTTTTAGTG, the switch fluorescence ratio came to 0.983 ± 0.038. Consider GTTTTTCCCC, for which the switch fluorescence ratio is 1.11 ± 0.14. The figure for GTTTTTCGCC is 1 ± 0.02. Regarding GTTTTTGAGG, the switch fluorescence ratio was determined as 0.977 ± 0.028. The figure for GTTTTTGCCA is 1.01 ± 0.016; for GTTTTTGGAG it is 0.98219 ± 0.00097. The figure for GTTTTTGTGA is 0.9693 ± 0.0079. To GTTTTTGTGG belongs 0.992 ± 0.01; to GTTTTTGTTT, 1 ± 0.033. GTTTTTTAAC: the switch fluorescence ratio stood at 1.01 ± 0.04. As to GTTTTTTAGA, the switch fluorescence ratio came out at 0.9728 ± 0.0018. To GTTTTTTCCG belongs 0.992 ± 0.012. To GTTTTTTCGG belongs 0.993 ± 0.023; to GTTTTTTGAT, 1.008 ± 0.0042; to GTTTTTTGGT, 0.982 ± 0.03.

For GTTTTTTTAA, the switch fluorescence ratio was 1 ± 0.034. The figure for GTTTTTTTAG is 1 ± 0.033; for GTTTTTTTCG it is 0.9829 ± 0.007. The figure for GTTTTTTTT is 1.05 ± 0.069.

TAAAAAACGG: the switch fluorescence ratio worked out at 0.954 ± 0.042.

In the case of TAAAAAGCGA, the switch fluorescence ratio is 0.987 ± 0.012.

In the case of TAAAAAGCGC, the switch fluorescence ratio was determined as 1.03 ± 0.03. On to TAAAAAGGTA, for which the switch fluorescence ratio came out at 1.02 ± 0.028. TAAAAAGTAC: the switch fluorescence ratio was 1.02 ± 0.027.

On to TAAAAAGTAG, for which the switch fluorescence ratio came out at 0.992 ± 0.024. To TAAAAATACA belongs 1.1 ± 0.13. On to TAAAAATCCC, for which the switch fluorescence ratio amounted to 1.16 ± 0.083.

As for TAAAAATCTT, the switch fluorescence ratio is 1.01 ± 0.041. The figure for TAAAAATGAG is 1.014 ± 0.0069; for TAAAAATTGG it is 0.997 ± 0.014. To TAAAACAGCG belongs 1.01 ± 0.012; to TAAAACGCTC, 1.07 ± 0.073; to TAAAACTCCA, 1.03 ± 0.038. To TAAAAGAGGA belongs 0.9974 ± 0.0058.

As to TAAAAGAGGG, the switch fluorescence ratio came to 0.9558 ± 0.0023. Regarding TAAAAGATAG, the switch fluorescence ratio came to 1 ± 0.019.

In the case of TAAAAGGGCT, the switch fluorescence ratio amounted to 0.999 ± 0.011.

On to TAAAAGGGTA, for which the switch fluorescence ratio was determined as 1 ± 0.019. To TAAAAGGGTT belongs 1 ± 0.031. The figure for TAAAAGTATT is 1.03 ± 0.068. As for TAAAAGTCGG, the switch fluorescence ratio came out at 1.01 ± 0.019.

TAAAAGTG: the switch fluorescence ratio stood at 0.961 ± 0.05.

Regarding TAAAAGTTTA, the switch fluorescence ratio came out at 1.04 ± 0.016. To TAAAAGTTTG belongs 0.996 ± 0.034; to TAAAATAGGG, 1.01 ± 0.018. To TAAAATGTTC belongs 0.988 ± 0.048; to TAAAATTGAG, 1 ± 0.024. The figure for TAAAATTGTA is 0.9917 ± 0.0035; for TAAACCGGTT it is 0.984 ± 0.027; for TAAACGAAGT it is 0.956 ± 0.054. For TAAAGAATTT, the switch fluorescence ratio came out at 0.98 ± 0.032.

Turning to TAAAGAGGGG, the switch fluorescence ratio was found to be 1 ± 0.021.

Consider TAAAGATGG, for which the switch fluorescence ratio is 0.995 ± 0.027. To TAAAGCTTAA belongs 1.05 ± 0.041; to TAAAGGATG, 0.968 ± 0.019. The figure for TAAAGGCACG is 1.03 ± 0.07.

Take TAAAGGCGGG: the switch fluorescence ratio came to 0.987 ± 0.023.

Regarding TAAAGGCGTG, the switch fluorescence ratio came to 0.96 ± 0.022. In the case of TAAAGGGCTT, the switch fluorescence ratio stood at 1.02 ± 0.018. To TAAAGGGGAG belongs 1.01 ± 0.019; to TAAAGGGTAA, 0.9888 ± 0.0044. To TAAAGGGTGG belongs 0.987 ± 0.032; to TAAAGGTTCG, 0.9618 ± 0.009. To TAAAGGTTCT belongs 1.02 ± 0.03; to TAAAGTAAAT, 0.9668 ± 0.0028; to TAAAGTGCAT, 1.036 ± 0.0066. For TAAAGTGCGA, the switch fluorescence ratio was found to be 0.993 ± 0.035.
